Test results: patent US20060093670A1, “Sustained-release composition process for producing the same and preparation thereof” (priority 2002, published 2006)

Assays:
[1] = Entrapment of IFN on HAP (IFN in the washed solution); assay type: physicochemical; settings: 30 μg IFN on 45 mg HAP, 20 mM zinc acetate, washed with 1.5 ml water
Protocol: (§1) 45 mg of porous hydroxyapatite (HAP) was accurately weighed. 30 μg of IFN from a 2.4 mg/ml interferon a (IFN) solution was added thereto, and the mixture was allowed to stand for 10 minutes. Then, 1 ml of a 20 mM/1 ml zinc acetate solution was added thereto, and the mixture was shaken for 30 minutes. This dispersion was washed by addition of 1.5 ml of water. When IFN in the washed solution was quantitatively determined, IFN was not detected. Specifically, all IFN was confirmed to be entrapped on HAP. In this manner, a microparticle preparation on which IFN as a protein was entrapped could be obtained without using an organic solvent. After the washing, 20 ml of a PBS solution containing FCS in an amount of 20% was added to the resulting powder, and the mixture was shaken at 37° C. for 16 hours. IFN eluted in the supernatant liquid was quantitatively determined to calculate the percent elution.

[2] = IFN α blood level after subcutaneous administration of IFN α-HAp preparation (Example 2); assay type: in vivo, ddy mouse; settings: IFN α with HSA, chondroitin sulfate and Zn(CH3COO)2 in HAp sintered at 180° C., 4 hours and 1 to 10 days, ELISA, FIG. 2
Protocol: 0.854 ml of 225 μg/ml IFN α (interferon α, Sumitomo Pharmaceuticals) and 1.2 ml of 20 mg/ml HSA were mixed to prepare a protein-mixed solution. 0.856 ml of the protein-mixed solution was mixed with 200 mg of HAp sintered at 180° C., and the mixture was stirred to entrap a protein in HAp. 0.05 ml of 20 mg/ml chondroitin sulfate (CS, from Wako), 0.074 ml of H2O, and 0.02 ml of 1 M Zn(CH3COO)2 were sequentially added thereto. The mixture was centrifuged at 15,000 rpm for five minutes. 2 ml of a 20 mM Zn(CH3COO)2/5% mannitol solution was added to the deposit to prepare a sample.
As a control, 0.644 ml of H2O and 0.5 ml of 20% mannitol were added to 0.856 ml of an IFN α-containing protein-mixed solution to prepare an IFN α (free) solution.
(§2) 0.5 ml of the sample prepared above was subcutaneously administered to an eight-week-old male ddy mouse (weight: 33 to 40 g, SLC, Japan). Four hours and one to ten days after the administration, blood was collected from the orbit of the mouse. The IFN α concentration in this blood was determined using an ELISA kit (Biosource).

[3] = Effect of Zn concentration on sustained release of IFN-HAp preparation (IFN α blood level, Example 3); assay type: in vivo, ddy mouse; settings: IFN α/HSA/CS in HAp, freeze-dried, subcutaneous, 4 hours and 1 to 7 days, FIG. 3
Protocol: 0.06 ml of 0.937 mg/ml IFN α, 0.3 ml of 20 mg/ml HSA, 0.03 ml of 20 mg/ml CS, and 1.22 ml of H2O were added to prepare a solution. 200 mg of HAp sintered at 180° C. was added on this solution. A protein was entrapped in HAp by stirring, and then 10 ml of H2O was added. The mixture was lightly stirred and centrifuged at 3,000 rpm for five minutes.
The deposit was freeze-dried and divided in two. 1 ml of a 20 mM Zn(CH3COO)2/5% mannitol solution was added to one division, while 1 ml of a 5 mM Zn(CH3COO)2/5% mannitol solution was added to the other division.
As a control, 0.015 ml of 0.937 mg/ml IFN α, 0.075 ml of 20 mg/ml HSA, 0.66 ml of H2O and 0.25 ml of 20% mannitol were added to prepare an IFN α (free) solution.
as §2, with “0.7” for “0.5”, “a seven-week-old” for “an eight-week-old”, “(weight: 31 to” for “(weight:”, “33” for “33 to 40”, “seven” for “ten”

[4] = Percent elution of IFN entrapped onto HAP in PBS containing 20% FCS; assay type: physicochemical; settings: 37° C., 16 hours
Protocol: as §1, with “Then, 1 ml of a 20 mM/1 ml zinc acetate solution was added thereto, and the mixture was shaken for 30 minutes.” left out

[5] = prior-art two-component apatite particles; cited from earlier work
[6] = In vitro release test of G-CSF from HAp in PBS, embolized versus not embolized; assay type: physicochemical; settings: embolized (HSA, CaCl2, then Na2CO3) versus not embolized, room temperature, ELISA, FIG. 4
Protocol: 100 μl of a preliminarily mixed solution of G-CSF (3 μg/ml), HSA (30 μg/ml), and CaCl2 (280 mg/ml) was added to 50 mg of HAp sintered at 180° C. The mixture was stirred using a vortex mixer for three minutes, allowed to stand for five minutes, and freeze-dried. 100 μl of a 220 mg/ml Na2CO3 solution was added to the resulting particles, and the mixture was stirred using a vortex mixer for three minutes. After further addition of 100 μl of water, the mixture was lightly stirred. A part of the mixture was collected for ELISA determination. The remaining part was centrifuged at 1,000 rpm for three minutes to collect the supernatant liquid. 2 ml of PBS was added to the deposit, and the mixture was lightly shaken at room temperature. After 0 hour and 0.5 hour, respectively, the supernatant liquid was collected. Further, 10 ml of PBS was added to the deposit, and the mixture was shaken at room temperature. After 0 hour and 0.5 hour, respectively, the supernatant liquid was collected. The final deposit and the supernatant liquids obtained on the way were subjected to determination using an ELISA kit (IBL). The final deposit was dissolved in 1% BSA/Tris-HCl (pH 5) and used for the ELISA determination. The results are shown in FIG. 4-A. 200 μl of a 1.5 μg/ml G-CSF solution was added to 50 mg of HAp to fill the pores, and 2 ml of PBS was added further. The same release test was conducted.

[7] = Adsorption of G-CSF on hydroxyapatite particles without zinc; assay type: physicochemical; settings: 40 mg hydroxyapatite particles, 100 μl of G-CSF solution (100 μg/ml), no zinc; eluted with pH 4 acetic acid buffer; ELISA
Protocol: 40 mg of hydroxyapatite particles were immersed in 100 μl of a G-CSF solution (100 μg/ml) for 10 minutes. Then, 900 μl of purified water was added, and the mixture was stirred and centrifuged. Then, the supernatant liquid was discarded. Purified water was added to the precipitate again, and the mixture was stirred and centrifuged to remove the excessive G-CSF.
The precipitate was suspended in a pH 4 acetic acid buffer to elute G-CSF. After centrifugation, the amount of G-CSF in the supernatant liquid was determined by ELISA to determine the amount of G-CSF adsorbed. Almost no adsorption was observed (0.1 μg or less).

[8] = Adsorption of G-CSF on hydroxyapatite preliminarily treated with zinc acetate; assay type: physicochemical; settings: for Amount of adsorbed G-CSF / Amount of free G-CSF: 10 mg hydroxyapatite bound with zinc
Protocol: Then, the following procedure was conducted to attempt adsorption of zinc on hydroxyapatite particles and adsorption of G-CSF on the particles. 10 mg of hydroxyapatite was suspended in 200 μl of zinc acetate (5 mg/ml). The suspension was allowed to stand for 10 minutes at room temperature, and then centrifuged at 10,000 rpm for 10 minutes to discard the supernatant liquid. The precipitate was suspended in 500 μl of purified water. The suspension was allowed to stand for 10 minutes at room temperature, and then centrifuged at 10,000 rpm for 10 minutes to discard the supernatant liquid. After the sediment was suspended and centrifuged again, the supernatant liquid was discarded. This precipitate was suspended in 0.5 ml of a 200 μg/ml or 1,000 μg/ml G-CSF solution. The suspension was allowed to stand for 10 minutes, and then centrifuged at 10,000 rpm for 10 minutes. The amount of G-CSF in the supernatant liquid was determined by an ELISA method. Further, G-CSF entrapped in hydroxyapatite was eluted from the precipitate using 0.1 M EDTA and a 1% HAS solution, and the eluate was centrifuged. Then, the G-CSF concentration in the supernatant liquid was determined by an ELISA method to determine the amount of G-CSF adsorbed on hydroxyapatite.

[9] = PC-BDNF blood level after subcutaneous administration of PC-BDNF-HAp preparation; assay type: in vivo, ddy mouse; settings: PC-BDNF in HAp sintered at 180° C. with HSA and 5 mM Zn(CH3COO)2/5% mannitol, 2 hours to 4 days, ELISA, FIG. 1
Protocol: 66 μl of a 4.54 mg/ml PC-BDNF (lecithinized BDNF) solution was added to 20 mg of porous hydroxyapatite microparticles (HAp) sintered at 180° C., and the mixture was stirred using a vortex mixer for one minute. 434 μl of a 0.1% HSA solution was added thereto, and the mixture was stirred again for one minute. The mixture was allowed to stand for three minutes, and then centrifuged at 1,000 rpm for three minutes to remove the supernatant liquid. 500 μl of a 5 mM Zn(CH3COO)2/5% mannitol solution was added to the deposit, and the mixture was stirred to prepare a sample. As a control, a sample in which 66 μl of a 4.54 mg/ml PC-BDNF solution was mixed with 434 μl of 5% mannitol was also prepared. 500 μl of each sample was subcutaneously administered to a six-week-old male ddy mouse. Two hours, seven hours, 17 hours, one day, two days, and four days after the administration, blood was collected from the orbit to determine the PC-BDNF blood level using an ELISA kit (Promega).

IFN α
IFN in the washed solution [1]: not detected
IFN α concentration in blood, sustained-release effect [2]: excellent sustained-release effect
IFN α blood level ([3]; zinc 5 mM): sufficiently increased, but was reduced comparatively rapidly
IFN α blood level ([3]; zinc 20 mM): not sufficiently increased, but IFN α was released slowly for a long time
Eluted IFN (%) ([4]; Zinc acetate 0 mM): 92%
Eluted IFN (%) ([4]; Zinc acetate 20 mM): 87%

hGH: human growth hormone, on prior-art apatite particles
Amount of hGH adsorbed on the apatite particles (entrapped amount) [5]: ≤ 1%

B1: G-CSF: G-CSF protein loaded into or adsorbed on hydroxyapatite microparticles (protein, UniProt P09919 31-207, looked up)
Granulocyte …: TPLGPASSLPQSFLLKCLEQVRKIQGDGAALQEKLVSECATYKLCHPEELVLLGHSLGIPWAPLSSCPSQALQLAGCLSQLHSGLFLYQGLLQALEGISPELGPTLDTLQLDVADFATTIWQQMEELGMAPALQPTQGAMPAFASAFQRRAGGVLVASHLQSFLEVSYRVLRHLAQP
modifications: adsorbed on hydroxyapatite microparticles
Release of G-CSF from HAp [6]: release was remarkably suppressed
Amount of G-CSF adsorbed [7]: ≤ 0.1 µg
Amount of adsorbed G-CSF ([8]; total amount of G-CSF 100 μg): 86.4 µg
Amount of free G-CSF ([8]; total amount of G-CSF 100 μg): 0.4 µg
Amount of adsorbed G-CSF ([8]; total amount of G-CSF 500 μg): 400.0 µg
Amount of free G-CSF ([8]; total amount of G-CSF 500 μg): 90.0 µg
Maximum amount of G-CSF adsorbed ([8]; on 10 mg of hydroxyapatite): 400 µg

B2: PC-BDNF: lecithinized BDNF; tested entrapped in HAp with HSA and zinc acetate (PC-BDNF-HAp preparation) (conjugate, UniProt P23560 19-247, looked up)
Neurotrophic factor BDNF …: APMKEANIRGQGGLAYPGVRTHGTLESVNGPKAGSRGLTSLADTFEHVIEELLDEDQKVRPNEENNKDADLYTSRVMLSSQVPLEPPLLFLLEEYKNYLDAANMSMRVRRHSDPARRGELSVCDSISEWVTAADKKTAVDMSGGTVTVLEKVPVSKGQLKQYFYETKCNPMGYTKEGCRGIDKRHWNSQCRTTQSYVRALTMDSKKRIGWRFIRIDTSCVCTLTIKRGR
modifications: lecithinized; entrapped in hydroxyapatite
PC-BDNF blood level, sustained-release effect [9]: excellent sustained-release effect
